The text below walks through data of US20100041743A1.

Holding throughout (assay): cell-based or functional assay
One test concerns the target rabbit IgG (Sigma).
The target of test [1] is anti-OVA mouse IgG1 (mAb, Sigma).
In test [2] the target is human IgG (Gammonativ, Octapharma).

Take “hybrid bFcRn α-chain / mouse β2m receptor (bovine FcRn expressed in BAC 128E04 transgenic mice) (from UniProt F6R592 35-358; P01887 21-119)”: in the test with rabbit IgG (Sigma), the half-life of injected rabbit IgG in bFcRn/mFcRn-/- mice (15 hours in FcRn-/- mice) turned out to be 67 h. In test [1], the beta-phase half-life (hours) of injected mouse IgG in bFcRn Tg mice (line #14 homozygote), 10 µg/BWg was determined as 165 h. Also, in test [2], the beta-phase half-life (hours) of injected human IgG in bFcRn Tg mice (line #14 homozygote), 10 µg/BWg was 172 h and the beta-phase half-life (hours) of injected human IgG in bFcRn Tg mice (line #14 homozygote), 20 µg/BWg is 181 h.
